Measurements: the supplement of paper PMC10567573

B1: INTS3 (parent)
chain: FHPIKETVVEEPVDITPYLDQLDE
B2: CCNC (parent)
chain: QSSHYLQWILDKQDLLKERQKDLK

Variants of: B1
Assay: protein stability index of a GFP-peptide fusion (GPS, HEK-293T) (PSI 1-6); higher = more stable
Details: c terminus: a fixed tail appended
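Further: lentivirally expressed fusions sorted by FACS into six bins by GFP to DsRed ratio, PSI derived from sequencing read proportions per bin multiplied by bin number.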

Protein stability index of substitutions, site by site:
V8: A 3.87 | G 3.91 | W 2.54
I4: Y 2.77 | V 3.82 | C 3.31 | F 3.4
Q21: V 4.05 | L 3.05 | N 3.06 | R 2.71
E6: C 1.78
E24: L 2.85 | H 2.66 | K 2.42 | W 1.84
D14: H 3.11 | R 2.62 | Q 2.91
D23: P 3.02 | K 2.39 | F 2.28
F1: A 5.42 | M 5.23 | R 5.18
P12: G 3.58 | N 3.57 | A 2.99 | H 3.29 | S 3.31
P3: K 4.82 | R 3.76 | F 2.52 | E 5
V9: R 3.08 | I 3.04 | M 3.69
L22: K 3.7 | R 3.71
E10: C 2.19 | D 3.24 | Q 2.99 | V 2.12 | I 2.08 | L 2.69
H2: W 4.2 | P 5.03 | C 4.11 | M 4.87 | Y 4.63
T16: S 3.32 | G 3.44 | A 3.91
D20: W 2.14 | F 2.41 | N 2.94 | R 2.96 | H 3 | Y 2.08 | P 2
T7: Y 2.88 | I 3.06 | K 2.91 | H 3.35 | S 3.57
K5: V 4.17 | A 4.47 | H 4.67
P17: V 3.21 | Q 3.52 | S 3.12
L19: K 3.24 | D 3.24 | A 3.21 | F 3.02 | Q 2.72
I15: S 2.92 | F 2.4 | P 3.53
V13: C 3.08 | E 3.34 | M 3 | R 2.58
Y18: A 3.58 | Q 3.95 | I 2.7 | E 3.36

Variants of: B2
Assay: as above
Details: c terminus: a fixed tail appended

Protein stability index: each site, then its substitutions
W8: N 4.46 | Y 4.5 | F 3.77 | K 3.87 | G 3.94 | Q 3.96 | I 3.16 | E 4.35 | V 3.52 | A 4.42
Q20: K 3.07 | W 1.44 | E 2.96 | G 2.98 | P 2.76 | T 3.2 | N 3.21 | A 3.12 | C 2.46
Y5: P 4.47 | R 3.38 | F 2.77 | C 3.61 | W 2.53 | Q 4.29 | S 4.56 | T 3.7
D11: H 2.86 | R 2.1 | K 3.09 | E 3.4 | Q 3.39 | I 2.26 | A 3.01 | C 2.96 | Y 3.17
S3: I 2.02 | W 2.32 | G 3.39 | V 2.29 | N 3.17 | M 2.38 | Y 2.34 | R 3.04 | C 3.02
Q7: K 2.84 | H 3.58 | W 2.1 | A 2.39 | E 2.73 | Y 2.85 | D 3.9 | C 2.42 | R 2.37
I9: G 3.67 | V 3.09 | M 3.53 | W 3.83 | L 3.36 | Q 4.21 | S 4 | H 3.64 | D 4.82 | T 3.74
L16: R 3.78 | H 4 | P 4.26 | Y 2.57 | T 3.73 | N 4 | S 4.05 | D 3.58 | V 4.04 | Q 4.15 | M 2.52 | A 3.74 | C 3.52
L10: C 3.86 | A 4.22 | D 4.49 | Y 3.42 | H 3.52
E18: Q 2.29 | V 2.82 | K 2.89 | I 2.84 | C 2.28 | T 2.7 | S 2.54 | P 2.56 | R 2.63 | L 2.33 | M 2.02 | D 3.08 | A 3.67
H4: V 2.5 | P 2.72 | D 3.55 | N 3.27 | F 1.88 | E 3.5
R19: V 2.19 | Q 3.5 | G 3.25 | T 3.14 | W 2.64 | I 2.29 | M 2.12 | C 2.42
K17: P 3.38 | G 2.96 | I 2.09 | T 3.34 | F 2.62 | C 2.71 | L 2.68 | V 2.82 | R 2.33 | D 2.94 | A 3.21 | E 3.35
Q1: P 3.77 | S 3.16 | K 2.5 | D 2.94 | I 2.28 | C 3.1 | A 2.78 | E 2.72 | W 1.44 | V 2.74
L6: G 4.11 | H 3.69 | M 3.21 | F 3.52 | V 3.7 | Y 2.77 | T 3.2 | D 4.14 | I 2.83 | Q 3.72 | E 5.2 | S 3.99
Q13: N 3.74 | Y 2.42 | V 2.76 | K 3.49 | D 3.82 | G 2.94 | P 3.36 | R 2.6 | M 2 | F 2.34 | E 2.71 | C 3.1 | W 2.36 | H 2.5 | S 2.91 | I 2.59 | T 2.7
K12: I 1.71 | D 4.21 | E 3.66 | H 2.83 | L 1.72 | M 1.92 | S 1.98 | A 2.73 | Y 2.75
D22: V 2.79 | W 2.57 | G 2.6 | P 2.6 | Y 2.82 | L 2.08 | K 2.18
D14: A 2.58 | L 2.8 | Q 3.48 | Y 2.61 | V 2.9 | N 3.39 | I 2.55 | K 3.65 | R 2.7
K21: Q 3.02 | N 2.57 | R 4.05 | T 3.28 | M 2.9 | H 2.45 | D 2.83 | S 2.84 | C 2.42 | L 2.43 | F 1.69 | Y 2.69 | I 3.01 | P 3.42
L23: W 2.98 | V 2.48 | C 3.31 | R 3.52 | K 3.6 | I 3.39 | Y 1.85 | D 4.22 | G 4.43 | F 2.82 | T 3.27
L15: V 3.11 | R 2.78 | T 3.72 | C 3.21 | P 3.93 | A 4.19 | K 3.66 | Y 2.8 | S 3.44 | H 3.72 | N 3.33
S2: M 1.49 | C 2.27 | Y 1.96 | R 2.39 | D 3.46 | F 1.1 | L 1.95 | W 2.7 | A 2.14 | V 2.64 | E 3.3 | K 2.46 | P 3.01 | I 2.07
K24: L 3.19 | C 2.29 | R 2.57 | V 2.92 | N 3.46 | F 2.69 | I 2.21 | M 2.57 | G 3.1 | W 1.78 | E 3.78 | D 4.08
